Measurements as given in publication PMC7644641 (Nature structural & molecular biology, 2020).

Molecular target: RagA:RagC^D181N GTPase heterodimer (UniProt Q7L523 1-313; Q9HB90 1-399, D181N)
Experiment: SEC

RagA:RagC^D181N GTPase heterodimer, sequence (Q7L523 whole entry, chain 1 of 2): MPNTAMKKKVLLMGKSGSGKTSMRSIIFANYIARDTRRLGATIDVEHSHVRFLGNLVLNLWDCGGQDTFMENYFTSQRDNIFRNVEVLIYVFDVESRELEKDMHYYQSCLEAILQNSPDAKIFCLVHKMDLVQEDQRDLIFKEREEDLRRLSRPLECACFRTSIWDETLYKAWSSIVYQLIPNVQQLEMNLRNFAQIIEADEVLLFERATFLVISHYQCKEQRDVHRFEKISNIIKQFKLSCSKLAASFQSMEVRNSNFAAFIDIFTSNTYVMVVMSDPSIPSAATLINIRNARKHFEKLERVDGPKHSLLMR
RagA:RagC^D181N GTPase heterodimer, sequence (Q9HB90 whole entry D181N, chain 2 of 2): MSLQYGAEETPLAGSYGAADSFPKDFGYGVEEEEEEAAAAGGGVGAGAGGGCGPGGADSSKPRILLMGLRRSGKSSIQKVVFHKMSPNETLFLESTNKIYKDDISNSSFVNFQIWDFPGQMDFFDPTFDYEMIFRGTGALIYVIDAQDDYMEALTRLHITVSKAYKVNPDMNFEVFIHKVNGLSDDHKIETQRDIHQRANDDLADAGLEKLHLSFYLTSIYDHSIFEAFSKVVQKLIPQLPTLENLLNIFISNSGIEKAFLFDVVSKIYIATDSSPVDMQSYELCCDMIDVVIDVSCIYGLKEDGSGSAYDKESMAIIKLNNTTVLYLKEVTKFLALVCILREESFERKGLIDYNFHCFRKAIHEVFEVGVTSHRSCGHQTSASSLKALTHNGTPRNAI

B1: SLC38A9 N-terminal cytoplasmic tail (residues 1–119) (domain or fragment, human, UniProt Q8NBW4 1-119, looked up)
chain: MANMNSDSRHLGTSEVDHERDPGPMNIQFEPSDLRSKRPFCIEPTNIVNVNHVIQRVSDHASAMNKRIHYYSRLTTPADKALIAPDHVVPAPEECYVYSPLGSAYKLQSYTEGYGKNTS
binding result: binds
